Data taken from IntAct's records for PubMed 12819209.

B1: Prolactin receptor (Homo sapiens), P16471 (parent)
chain: MKENVASATVFTLLLFLNTCLLNGQLPPGKPEIFKCRSPNKETFTCWWRPGTDGGLPTNYSLTYHREGETLMHECPDYITGGPNSCHFGKQYTSMWRTYIMMVNATNQMGSSFSDELYVDVTYIVQPDPPLELAVEVKQPEDRKPYLWIKWSPPTLIDLKTGWFTLLYEIRLKPEKAAEWEIHFAGQQTEFKILSLHPGQKYLVQVRCKPDHGYWSAWSPATFIQIPSDFTMNDTTVWISVAVLSAVICLIIVWAVALKGYSMVTCIFPPVPGPKIKGFDAHLLEKGKSEELLSALGCQDFPPTSDYEDLLVEYLEVDDSEDQHLMSVHSKEHPSQGMKPTYLDPDTDSGRGSCDSPSLLSEKCEEPQANPSTFYDPEVIEKPENPETTHTWDPQCISMEGKIPYFHAGGSKCSTWPLPQPSQHNPRSSYHNITDVCELAVGPAGAPATLLNEAGKDALKSSQTIKSREEGKATQQREVESFHSETDQDTPWLLPQEKTPFGSAKPLDYVEIHKVNKDGALSLLPKQRENSGKPKKPGTPENNKEYAKVSGVMDNNILVLVPDPHAKNVACFEESAKEAPPSLEQNQAEKALANFTATSSKCRLQLGGLDYLDPACFTHSFH

Variants of: B1
Conditions: with 1433z_human YWHAZ

effect of a mutation on the interaction | Variant
decreasing interaction strength | T415A
decreasing interaction strength | C413A;S414A;T415A
